Among the data in patent publication US20120237528A1 are T½ Max (seconds), coagulation of human plasma and coagulation time values, retold here.

In the assay the target is Innovin, lyophilized recombinant human tissue factor combined with phospholipids (human) (UniProt P13726). As to the kind of experiment: cell-based or functional assay.

Some results are limits rather than exact numbers.

Chain of Innovin, lyophilized recombinant human tissue factor combined with phospholipids (human) (P13726 33-295 limits assumed): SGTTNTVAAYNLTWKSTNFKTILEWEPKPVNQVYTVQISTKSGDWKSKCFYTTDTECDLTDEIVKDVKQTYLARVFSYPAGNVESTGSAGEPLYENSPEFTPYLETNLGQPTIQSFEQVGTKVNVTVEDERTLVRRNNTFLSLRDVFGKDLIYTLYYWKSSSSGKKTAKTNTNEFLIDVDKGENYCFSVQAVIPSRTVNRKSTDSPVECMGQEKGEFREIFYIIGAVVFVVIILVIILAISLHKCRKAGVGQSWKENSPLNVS

On to “CNTO 860, humanized form of the antibody 5G9, human IgG1/Kappa”, for which the T½ Max (seconds), coagulation of human plasma is above 900 s and the coagulation time is above 1800 s.
